Assay results from doi:10.1101/2020.01.24.918300 (bioRxiv, 2020).

Molecular target: the molecule itself
Assay: single-molecule photobleaching step counting on DNA tightropes

B1: cJun bZIP region fused to mNeonGreen (domain or fragment)
chain: RIKAERKRMRNRIAASKCRKRKLERIARLEEKVKTLKAQNSELASTANMLREQVAQLKQKVMNH
  stoichiometry N: 2
